From US20240294632A1 (XL PROTEIN, published 2024) come the findings set out here.

Substitutions are numbered along the chain they refer to.

In one assay the target is T1, P/A #1 sequence.
T1 construct: in sentences on specificity it stands for P/A #1 polypeptides in general
T1 peptide: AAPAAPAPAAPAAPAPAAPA
The experiment in a line: ELISA and SPR with Fabs.

In assay [1] the target is T2, PAS #1(600)-Leptin.
T2 chain: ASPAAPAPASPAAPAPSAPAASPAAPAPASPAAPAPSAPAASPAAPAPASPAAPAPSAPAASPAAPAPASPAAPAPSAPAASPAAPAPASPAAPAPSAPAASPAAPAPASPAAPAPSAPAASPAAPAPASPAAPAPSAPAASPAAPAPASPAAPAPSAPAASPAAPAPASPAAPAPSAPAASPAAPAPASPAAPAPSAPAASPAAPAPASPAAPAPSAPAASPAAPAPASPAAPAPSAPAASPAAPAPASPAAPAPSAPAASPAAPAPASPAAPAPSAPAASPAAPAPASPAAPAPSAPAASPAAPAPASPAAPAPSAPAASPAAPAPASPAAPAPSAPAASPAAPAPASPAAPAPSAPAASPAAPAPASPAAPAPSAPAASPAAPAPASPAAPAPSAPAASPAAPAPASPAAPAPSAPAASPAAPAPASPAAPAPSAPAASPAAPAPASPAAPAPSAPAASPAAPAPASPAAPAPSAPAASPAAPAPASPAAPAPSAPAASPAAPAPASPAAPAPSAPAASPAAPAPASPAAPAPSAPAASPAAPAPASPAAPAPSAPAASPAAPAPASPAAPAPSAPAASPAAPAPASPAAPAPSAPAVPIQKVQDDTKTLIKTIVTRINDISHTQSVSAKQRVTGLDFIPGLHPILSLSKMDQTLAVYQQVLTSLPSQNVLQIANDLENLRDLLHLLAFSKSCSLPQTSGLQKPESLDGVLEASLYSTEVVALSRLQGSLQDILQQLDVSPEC
The experiment in a line: ELISA, antigen coated, Fab titrated.

Assay [2] deals with T2, PAS #1(600)-Leptin. The experiment in a line: ELISA, Fab titrated on coated PAS#1(600)-Leptin.
Assay [3] concerns the target T3, PAS #1(200)-IL1Ra.
T3 construct: PASylated fusion protein produced in E. coli; Biotinylated for the SPR measurements with Fabs
As to the kind of experiment: SPR, biotinylated antigen on CAPture chip, Fab as analyte, 1:1 model.

The next assay deals with T4, P/A #1(600) polypeptide.
T4 chain: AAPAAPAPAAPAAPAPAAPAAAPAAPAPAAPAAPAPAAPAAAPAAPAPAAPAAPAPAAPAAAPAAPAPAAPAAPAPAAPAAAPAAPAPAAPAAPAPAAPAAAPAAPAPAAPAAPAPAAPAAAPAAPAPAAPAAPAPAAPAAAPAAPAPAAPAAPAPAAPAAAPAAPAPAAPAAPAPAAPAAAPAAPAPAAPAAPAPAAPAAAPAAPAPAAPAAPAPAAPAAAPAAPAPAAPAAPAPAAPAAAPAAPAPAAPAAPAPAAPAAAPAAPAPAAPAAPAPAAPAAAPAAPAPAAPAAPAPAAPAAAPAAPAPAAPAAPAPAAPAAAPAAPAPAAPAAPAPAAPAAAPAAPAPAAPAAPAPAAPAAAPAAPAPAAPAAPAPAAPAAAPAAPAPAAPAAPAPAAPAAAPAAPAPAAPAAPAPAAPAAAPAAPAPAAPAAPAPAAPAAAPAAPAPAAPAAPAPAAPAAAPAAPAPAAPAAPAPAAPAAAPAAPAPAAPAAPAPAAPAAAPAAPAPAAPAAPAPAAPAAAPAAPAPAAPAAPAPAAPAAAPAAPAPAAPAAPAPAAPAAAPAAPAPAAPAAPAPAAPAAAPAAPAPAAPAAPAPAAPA
The experiment in a line: ELISA, antigen coated, Fab titrated.

Assay [4] deals with T5, APSA(200)-IL1Ra.
T5 construct: Fusion protein produced in E. coli; Labelled with DIG-NHS in the MAb capture ELISA
As to the kind of experiment: ELISA, antigen coated, Fab titrated.

In assay [5] the target is T6, P/A #1(200)-IL1Ra.
T6 construct: PASylated fusion protein produced in E. coli; Biotinylated for the SPR measurements with Fabs
As to the kind of experiment: SPR, biotinylated antigen on CAPture chip, Fab as analyte, 1:1 model.

The next assay concerns the target T7, APSA(200)-TrxA.
T7 construct: Biotinylated and immobilised on a biotin CAPture chip; also called thioredoxinA-APSA(200)
The description is as above.

The next assay deals with T8, IL1Ra (Kineret/Anakinra) (UniProt P18510 26-177).
T8 construct: Commercial drug product; also called non-PASylated protein version
T8 sequence (P18510 26-177 limits assumed): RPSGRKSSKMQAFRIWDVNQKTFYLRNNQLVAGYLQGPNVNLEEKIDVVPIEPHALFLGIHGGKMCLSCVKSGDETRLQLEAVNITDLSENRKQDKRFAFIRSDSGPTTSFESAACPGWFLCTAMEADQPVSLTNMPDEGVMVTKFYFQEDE
As to the kind of experiment: western blot, hybridoma supernatant 1:2000.

The next assay concerns the target T9, hu4D5-P/A #1(200).
T9 construct: Detected with anti-human kappa light chain antibody in the capture ELISA
The experiment in a line: MAb capture ELISA, hybridoma supernatant on anti-mouse IgG Fc, antigen titrated.

For another assay, the target named is T10, hu4D5-PAS #1(200).
T10 construct: Detected with anti-human kappa light chain antibody in the capture ELISA
Described as above.

In assay [6] the target is T5, APSA(200)-IL1Ra. The experiment in a line: MAb capture ELISA, hybridoma supernatant on anti-mouse IgG Fc, DIG-labelled antigen titrated.
Assay [7] addresses T6, P/A #1(200)-IL1Ra. As to the kind of experiment: SPR, MAb from hybridoma supernatant captured by anti-mouse antibody, antigen as analyte, bivalent analyte model.
Assay [8] concerns the target T5, APSA(200)-IL1Ra. The assay is described as above.
The target of another assay is IL1Ra-PAS#1(800). As to the kind of experiment: ELISA, Fab titrated on IL1Ra-PAS#1(800) (x axis: Fab concentration).
IL1Ra-PAS#1(800), sequence (chain, as listed by the source): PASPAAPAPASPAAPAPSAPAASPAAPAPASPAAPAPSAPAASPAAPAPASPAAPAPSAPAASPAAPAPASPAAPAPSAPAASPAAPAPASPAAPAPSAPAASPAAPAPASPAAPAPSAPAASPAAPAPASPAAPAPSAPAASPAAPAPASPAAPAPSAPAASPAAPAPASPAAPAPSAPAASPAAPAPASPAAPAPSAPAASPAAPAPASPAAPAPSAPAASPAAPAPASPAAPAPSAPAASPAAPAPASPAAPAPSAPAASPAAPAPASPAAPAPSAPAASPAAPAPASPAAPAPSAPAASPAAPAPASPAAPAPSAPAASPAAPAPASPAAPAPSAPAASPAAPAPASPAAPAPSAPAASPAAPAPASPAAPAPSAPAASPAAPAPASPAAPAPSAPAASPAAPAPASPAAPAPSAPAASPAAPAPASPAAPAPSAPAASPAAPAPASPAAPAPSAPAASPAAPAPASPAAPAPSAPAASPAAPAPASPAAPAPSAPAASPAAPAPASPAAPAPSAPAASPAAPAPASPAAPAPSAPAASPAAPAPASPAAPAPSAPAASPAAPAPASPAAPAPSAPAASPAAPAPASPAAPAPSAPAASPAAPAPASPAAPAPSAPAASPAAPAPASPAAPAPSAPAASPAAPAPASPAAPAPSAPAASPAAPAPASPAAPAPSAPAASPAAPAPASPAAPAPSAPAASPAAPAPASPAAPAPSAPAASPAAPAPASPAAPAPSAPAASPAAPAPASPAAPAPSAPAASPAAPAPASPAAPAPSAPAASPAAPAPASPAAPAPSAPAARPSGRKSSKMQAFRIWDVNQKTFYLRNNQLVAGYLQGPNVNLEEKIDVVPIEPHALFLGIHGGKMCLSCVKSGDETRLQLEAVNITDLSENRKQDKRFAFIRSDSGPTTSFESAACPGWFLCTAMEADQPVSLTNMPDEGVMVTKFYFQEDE
The target in the next assay is P/A#1(600)-GMCSF. As to the kind of experiment: ELISA, Fab titrated on P/A#1(600)-GMCSF (x axis: Fab concentration).
P/A#1(600)-GMCSF, sequence (fusion protein, as listed by the source): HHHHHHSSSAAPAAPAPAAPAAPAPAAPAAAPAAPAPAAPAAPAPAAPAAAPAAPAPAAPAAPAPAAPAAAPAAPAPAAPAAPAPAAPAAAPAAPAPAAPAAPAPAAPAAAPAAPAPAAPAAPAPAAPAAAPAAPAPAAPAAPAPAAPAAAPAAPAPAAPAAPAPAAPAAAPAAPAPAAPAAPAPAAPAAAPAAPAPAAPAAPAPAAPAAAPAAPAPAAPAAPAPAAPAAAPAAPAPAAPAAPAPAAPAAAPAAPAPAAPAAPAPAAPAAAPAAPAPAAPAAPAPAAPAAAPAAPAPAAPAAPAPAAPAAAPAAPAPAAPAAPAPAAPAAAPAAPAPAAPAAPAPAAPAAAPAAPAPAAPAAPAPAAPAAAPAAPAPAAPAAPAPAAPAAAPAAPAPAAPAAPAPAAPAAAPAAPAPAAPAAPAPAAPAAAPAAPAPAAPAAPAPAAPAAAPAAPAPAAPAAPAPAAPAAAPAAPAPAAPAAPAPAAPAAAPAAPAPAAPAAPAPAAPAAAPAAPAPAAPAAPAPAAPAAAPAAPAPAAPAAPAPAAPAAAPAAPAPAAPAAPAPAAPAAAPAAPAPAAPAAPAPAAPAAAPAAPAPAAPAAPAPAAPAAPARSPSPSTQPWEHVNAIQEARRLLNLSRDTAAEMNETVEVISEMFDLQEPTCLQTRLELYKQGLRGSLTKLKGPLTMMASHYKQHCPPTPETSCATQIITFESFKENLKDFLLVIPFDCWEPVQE
Assay [9] deals with T2, PAS #1(600)-Leptin. As to the kind of experiment: ELISA, Fab titrated on PAS#1(600)-Leptin (x axis: Fab concentration).
Assay [10] addresses T3, PAS #1(200)-IL1Ra. As to the kind of experiment: SPR, MAb from hybridoma supernatant captured by anti-mouse antibody, antigen as analyte, bivalent analyte model.
Assay [11] deals with T11, recombinant Galectin-3 carrying a C173T mutation and a C-terminal Strep-tag II (Homo sapiens (Human), UniProt P17931 2-250).
T11 construct: the wording would also allow that it is the Strep-tag II alone
T11 sequence (P17931 other isoform, or with tags, fused parts or gaps C173T C173T limits assumed): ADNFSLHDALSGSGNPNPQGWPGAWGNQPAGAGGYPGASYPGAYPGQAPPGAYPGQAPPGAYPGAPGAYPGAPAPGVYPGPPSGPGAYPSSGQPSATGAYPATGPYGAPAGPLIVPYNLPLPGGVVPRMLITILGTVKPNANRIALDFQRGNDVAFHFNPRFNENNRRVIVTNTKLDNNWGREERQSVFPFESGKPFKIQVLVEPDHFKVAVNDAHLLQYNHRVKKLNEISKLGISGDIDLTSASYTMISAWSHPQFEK
The experiment in a line: SPR, PAS-Fab captured by MAb 1.1, Galectin-3 as analyte, single cycle kinetics, 1:1 Langmuir model.

T3 sequence (chain, as listed by the source limits assumed): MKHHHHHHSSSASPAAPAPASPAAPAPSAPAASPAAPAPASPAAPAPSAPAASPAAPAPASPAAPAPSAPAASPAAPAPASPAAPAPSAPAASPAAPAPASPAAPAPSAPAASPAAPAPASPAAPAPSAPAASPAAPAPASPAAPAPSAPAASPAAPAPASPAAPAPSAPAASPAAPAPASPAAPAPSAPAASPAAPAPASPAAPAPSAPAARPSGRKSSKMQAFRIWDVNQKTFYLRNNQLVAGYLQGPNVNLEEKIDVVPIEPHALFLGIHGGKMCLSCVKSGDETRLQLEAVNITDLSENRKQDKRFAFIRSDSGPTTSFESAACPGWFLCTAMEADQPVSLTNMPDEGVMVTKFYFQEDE

B1: Fab fragment of Anti-PA(S) MAb 1.1 (Fab, V domains shown)
VH: QVQLKESGPGLVAPSQSLSITCTVSGFSLTGYGVNWVRQPPGKGLEWLGMIWGDGITDYNSALKSRLSISKDNSKSQVFLKMNSLQTDDTARYYCARDYYGRRYYAMDYWGQGTSVTVSS
VL: DIVLTQSPASLAVSLGQRATISCRASKSVSSSGYNYMFWYQQKPGQPPKLLIYLASNLESGVPDRFWGSGSGTDFTLNIHPVEEEDAATYYCQHSRELPLTFGAGTKLELKR
notes: flanking restriction sites were introduced for subcloning; also called Anti-PA(S) MAb 1.1 Fab; anti-PAS #1 Fab
For the molecule B1, the binding result with P/A #1 sequence is on record as “no binding”. Moreover, the results for the Kd in the assay with PAS #1(600)-Leptin [1] and in the assay with PAS #1(200)-IL1Ra [3] were 23 nM and 8800 nM, respectively. For the same molecule, in the assay with PAS #1(600)-Leptin [2], the “EC50 (read off the curve)” value was about 10 nM.

B2: Fab fragment of Anti-PA(S) MAb 3.2 (Fab, V domains shown)
VH: QVQLQQSGAELVRPGASVKLSCKALGYTFTDYEMFWVKQTPVHGLECIGTIHPGSGGTAYNQKFKGKATLTADKSSSTAYMELSSLTSEDSAVYYCTRNDRGSWGQGTTLTVSS
VL: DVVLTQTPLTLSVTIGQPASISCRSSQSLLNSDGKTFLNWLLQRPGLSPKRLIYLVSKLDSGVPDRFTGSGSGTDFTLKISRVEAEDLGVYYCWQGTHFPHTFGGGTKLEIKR
notes: also called Anti-PA(S) MAb 3.2 Fab; anti-APSA antibody fragment
B2: the Kd was determined as 48 nM with P/A #1(600) polypeptide; 311 nM in the assay with PAS #1(600)-Leptin [1]; 1.6 nM in the assay with APSA(200)-IL1Ra [4]; 446 nM in the assay with P/A #1(200)-IL1Ra [5]; 137 nM with APSA(200)-TrxA.

B3: Anti-PA(S) MAb 3.2 (antibody, V domains shown)
VH: B2 VH
VL: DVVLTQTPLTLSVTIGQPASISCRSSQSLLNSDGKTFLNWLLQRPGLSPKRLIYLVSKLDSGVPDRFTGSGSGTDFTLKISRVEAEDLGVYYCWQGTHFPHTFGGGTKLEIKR
notes: Mouse monoclonal IgG from hybridoma (culture supernatant)
As for B3, the binding result with IL1Ra (Kineret/Anakinra) is “no binding”. The Kd was determined as 0.4 nM with hu4D5-P/A #1(200); 294 nM with hu4D5-PAS #1(200); 0.251 nM with APSA(200)-IL1Ra [6]; 20 nM with P/A #1(200)-IL1Ra [7]; 0.108 nM with APSA(200)-IL1Ra [8].

B4: Fab fragment of Anti-PA(S) MAb 2.1 (Fab, V domains shown)
VH: QVTLKESGPGILQPSQTLSLTCSFSGFSLSTYDMGVGWIRQPSGKGLEWLANIWWNDNKYYNSALKSRLTISKDTSNNQVFLKISSVDATDTATYYCAQMRDNYGVWFAFWGQGTLVTVSA
VL: DIVMSQSPSSLAVSVGEKVTMSCKSSQSLFYSNREKNYLAWYQQKPGQSPKLLIYWASTRESGVPDRFTGSGSGTDFTLTISNVKAEDLAVYYCQQYYNYPTFGAGTKLELKR
notes: also called Anti-PA(S) MAb 2.1 Fab; anti-P/A #1 Fab
In the case of B4, the Kd was determined as 2 nM with P/A #1(600) polypeptide, 2.2 nM in the assay with PAS #1(600)-Leptin [1], 648 nM in the assay with P/A #1(200)-IL1Ra [5] and 4.4 nM with PAS #1(200)-IL1Ra [3]. Also, the results for the “EC50 (read off the curve)” value with IL1Ra-PAS#1(800), with P/A#1(600)-GMCSF and with PAS #1(600)-Leptin [9] were about 2 nM, about 1 nM and about 2 nM, respectively.

B5: Fab fragment of Anti-PA(S) MAb 2.2 (Fab, V domains shown)
VH: QVTLKESGPGILQPSQTLSLTCSFSGFSLNTYGMGVGWIRQPSGKGLEWLANIWWTDDKYYNSVLKSRLTISKDTFNNQVFLKISSVDTADTATYYCAQLAYHDNPWFAYWGQGTLVTVSA
VL: B4 VL with M21L, F30L, R34N, E35Q, N83S, A105G, L111I
notes: also called Anti-PA(S) MAb 2.2 Fab; anti-P/A #1 MAb 2.2 Fab
In the case of B5, the Kd stood at 8 nM with P/A #1(600) polypeptide and 7000 nM with P/A #1(200)-IL1Ra [5].

B6: Anti-PA(S) MAb 2.2 (antibody, V domains shown)
VH: B5 VH
VL: B4 VL with M21L, F30L, R34N, E35Q, N83S, A105G, L111I
notes: Mouse monoclonal IgG from hybridoma (culture supernatant); also called 3F3E2
Turning to B6, in the assay with IL1Ra (Kineret/Anakinra), the binding result was “no binding”. Besides, the Kd with hu4D5-P/A #1(200) is 69 nM; with P/A #1(200)-IL1Ra [7], 1.1 nM; in the assay with PAS #1(200)-IL1Ra [10], 22 nM.

B7: anti-Galectin-PAS(200) Fab fragment (Fab)
chain 1: QIQLVQSGAEVKKPGESLKISCKVSGYTFTDYAIHWVRQMPGKGLKWMGWINTYTGKPIYADDFKGQVIISLDKSINTAYLQWSSLKASDTAIYYCARGTMMASLDYWGQGTTVTVSSASTKGPSVFPLAPSSKSTSGGTAALGCLVKDYFPEPVTVSWNSGALTSGVHTFPAVLQSSGLYSLSSVVTVPSSSLGTQTYICNVNHKPSNTKVDKKVEPKSCHHHHHH
chain 2: DVVMTQSPSSLSASVGDRVTITCKSSQSLVHSDGKTYLSWIQQKPGKAPKGLIYLVSKLDSGVPSRFSGSGSETDFTLTISSLQPEDSATYYCWQATHFPLTFGPGTKLEIKRTVAAPSVFIFPPSDEQLKSGTASVVCLLNNFYPREAKVQWKVDNALQSGNSQESVTEQDSKDSTYSLSSTLTLSKADYEKHKVYACEVTHQGLSSPVTKSFNRGECASPAAPAPASPAAPAPSAPAASPAAPAPASPAAPAPSAPAASPAAPAPASPAAPAPSAPAASPAAPAPASPAAPAPSAPAASPAAPAPASPAAPAPSAPAASPAAPAPASPAAPAPSAPAASPAAPAPASPAAPAPSAPAASPAAPAPASPAAPAPSAPAASPAAPAPASPAAPAPSAPAASPAAPAPASPAAPAPSAPAA
notes: also called PASylated humanized anti-Galectin Fab fragment; PAS-Fab
As to B7, in assay [11], the Kd was found to be 0.0038 nM, the koff is 3e-05 s⁻¹ and the kon amounted to 7.9e+06 M⁻¹ s⁻¹.
